Broadly, the koff is the rate constant with which the complex falls apart. Broadly, the kon is the rate constant with which the complex forms. A low value points to slower complex formation. The Kd is the constant that tells how readily two partners part at equilibrium. High values mean weaker binding, low ones tighter binding.

The target in assay [1] is T1, human IL6 (Peprotech catalogue number 200-06) (human, UniProt P05231 30-212).
T1 construct: Bought protein
The assay can be described thus: Biacore, GH6L IgG1 captured on GMCSF immobilised on a CM5 chip (GMCSF bound at the same time), concentration series of IL6 injected; five sensorgrams with fits [contd.]. From the text:
(§1) The antibody was expressed in human IgG1 format using standard mammalian expression vectors bearing GH6L heavy and light chain and signal peptide cDNAs, by transient transfection of HEK293-6E cells. Expressed IgG was affinity-purified using protein A resin. For Biacore™ analysis, GMCSF (Peprotech catalogue number 300-03) or an anti-light chain capture antibody was immobilized onto a CM5 chip using amine-coupling, resulting in 4000 RU and 12000 RU immobilized GMCSF and anti-light chain capture antibody, respectively.
Background: SPR reads the build-up and loss of mass on a sensor chip optically.

Assay [2] deals with T1, human IL6 (Peprotech catalogue number …). The assay can be described thus: Biacore, GH6L IgG1 captured on anti-light chain antibody immobilised on a CM5 chip (no GMCSF), concentration series of IL6 injected; five sensorgrams with fits [contd.].
Text: as §1

Assay [3] has as its target T2, human VEGF (Peprotech catalogue number 100-20) (human, UniProt P15692-4 27-191).
T2 construct: Bought protein
Briefly: SPR (Biacore), Fab captured by anti-light chain antibody on CM5 chip, VEGF 0-450 nM in flow. As to the method: Antibody libraries were selected against human VEGF (Peprotech catalogue number 100-20) and human IL6 (Peprotech catalogue number 200-06). Of the isolated parental antibody clones, IL6P and VEGFP were combined into the bi-specific antibody clone VH6L. […] To assess the affinities of parental and bi-specific antibodies, Biacore™ analysis was performed in order to analyze the binding behaviour of IL6P, VH6L and VEGFP. For this, an anti-light chain capture antibody was immobilized onto a CM5 chip using amine-coupling, resulting in 12000 RU. Fab fragments were captured to a level of 400-500 RU and a concentration series of IL6 and VEGF, ranging from 0 to 450 nM, was passed over the chip. As depicted in FIG. 7, clone IL6P binds to IL6, but not to VEGF, clone VEGFP binds to VEGF, but not to IL6, and the combined clone VH6L binds to both IL6 and VEGF.

T2 sequence (P15692 other isoform, or with tags, fused parts or gaps limits assumed): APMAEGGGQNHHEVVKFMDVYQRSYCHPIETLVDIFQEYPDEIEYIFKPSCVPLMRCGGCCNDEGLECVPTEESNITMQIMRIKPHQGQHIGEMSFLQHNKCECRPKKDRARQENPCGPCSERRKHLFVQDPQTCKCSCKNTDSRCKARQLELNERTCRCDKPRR

B1: GH6L (bispecific antibody, V domains shown)
VH: WVQLVESGGGLVQPGGSLRLSCAAKGALFSTYAMSWIRQAPGKGLEWIGQISGSGGSTVYNYNVLGRFTISRDNSKNTLYLQMNSLRAEDTAVYYCARDSGYFDIWGQGTLVTVSS
VL: ATQRTQSPSSLSASVGDRVTITCRALWHISSYLAWYQQKPGKAPKLLIYAASWLYWDVPSRFSGSGSGTDFTLTISSLQPEDFATYYCQQYSGLPYTFGQGTKVEIKR
notes: Specific for human GMCSF and human IL6, with two paratopes in one VH-VL pair; also called bi-specific antibody clone GH6L
For the molecule B1, the koff is 0.00045 s⁻¹ in assay [1] and 0.0017 s⁻¹ in assay [2]. The association rate constant (kon) was determined as 24000 M⁻¹ s⁻¹ in assay [1] and 57000 M⁻¹ s⁻¹ in assay [2].

B2: VH6L (Fab, V domains shown)
VH: YYQLVESGGGLVQPGGSLRLSCAADGFLFSGYAMSWIRQAPGKGLEWIGQISGSGGSTVYNYNVLGRFTISRDNSKNTLYLQMNSLRAEDTAVYYCARDTGYFDHWGQGTLVTVSS
VL: NIQKTQSPSSLSASVGDRVTITCRALWHISSYLAWYQQKPGKAPKLLIYAASHLHYGVPSRFSGSGSGTDFTLTISSLQPEDFATYYCQQYSGLPYTFGQGTKVEIKR
notes: Bi-specific clone (VEGF and IL6, two paratopes in one VH-VL pair) combined from IL6P and VEGFP; Tested as a Fab fragment; also called bi-specific antibody clone VH6L; combined clone VH6L
In assay [3], B2 had a Kd of 7.8 nM.

B3: VEGFP (Fab, V domains shown)
VH: YYQLVESGGGLVQPGGSLRLSCAADGFLFSGYAMSWIRQAPGKGLEWIGQISGSGGSTYYNDNVLGRFTISRDNSKNTLYLQMNSLRAEDTAVYYCARDTGYFDHWGQGTLVTVSS
VL: DTQMTQSPSSLSASVGDRVTITCRASQSISSYLAWYQQKPGKAPKLLIYAASHLHYGVPSRFSGSGSGTDFTLTISSLQPEDFATYYCQQYSSLPYTFGQGTKVEIKR
notes: Parental anti-VEGF clone, tested as a Fab fragment captured by an anti-light chain antibody in Biacore; the constant parts are human CH1 and CK; also called parental antibody VEGFP; clone VEGFP
In assay [3], B3 yielded a Kd of 11 nM.
